According to publication PMC5688200, “Overexpression of the transcription factor NF-YC9 confers abscisic acid hypersensitivity in Arabidopsis”:

Experiments:
NF-YC9-6His = biological target: T1, NF-YC9-6His (Arabidopsis thaliana, UniProt Q8L4B2 1-231); assay: EMSA; 5 mM MgCl2, poly(dI-dC); NF-YC9 alone; 25 mM HEPES pH 8.0, 40 mM KCl, 5 mM MgCl2, 1 mM DTT, 1 mM EDTA, 8% glycerol, 1 ug/uL poly(dI-dC), 20 fmol probe, 30 min room temperature, 5% native PAGE; conditions: protein: recombinant; tags: C-terminal 6His (codons in reverse primer); label: 5' biotin; blunt
T1 sequence: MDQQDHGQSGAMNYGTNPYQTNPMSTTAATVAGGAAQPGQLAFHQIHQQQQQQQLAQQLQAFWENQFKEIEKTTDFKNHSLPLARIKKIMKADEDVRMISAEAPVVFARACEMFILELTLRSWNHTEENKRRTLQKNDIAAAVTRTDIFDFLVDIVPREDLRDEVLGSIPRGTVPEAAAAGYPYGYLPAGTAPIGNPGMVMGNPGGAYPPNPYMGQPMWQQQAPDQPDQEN

ABI5-6His = biological target: T2, ABI5-6His (Arabidopsis thaliana, UniProt Q9SJN0 1-442); assay: EMSA; 5 mM MgCl2, poly(dI-dC); ABI5 alone, 1 ug; 25 mM HEPES pH 8.0, 40 mM KCl, 5 mM MgCl2, 1 mM DTT, 1 mM EDTA, 8% glycerol, 1 ug/uL poly(dI-dC), 20 fmol probe, 30 min room temperature, 5% native PAGE; conditions: protein: recombinant; tags: C-terminal 6His (codons in reverse primer); chain copies: 2; label: 5' biotin; blunt
T2 sequence: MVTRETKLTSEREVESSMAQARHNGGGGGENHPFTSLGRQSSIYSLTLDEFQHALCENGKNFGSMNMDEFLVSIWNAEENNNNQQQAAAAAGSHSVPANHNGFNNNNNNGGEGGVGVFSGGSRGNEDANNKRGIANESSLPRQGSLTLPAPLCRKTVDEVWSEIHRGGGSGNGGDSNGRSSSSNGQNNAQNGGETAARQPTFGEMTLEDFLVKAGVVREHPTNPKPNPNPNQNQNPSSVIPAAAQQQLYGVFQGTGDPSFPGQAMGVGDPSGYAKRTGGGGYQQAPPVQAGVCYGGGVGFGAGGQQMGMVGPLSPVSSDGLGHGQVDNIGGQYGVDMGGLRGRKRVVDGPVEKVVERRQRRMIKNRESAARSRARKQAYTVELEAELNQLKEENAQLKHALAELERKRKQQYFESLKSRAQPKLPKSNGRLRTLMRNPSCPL

B1: EM6 promoter probe (-277 to -220, contains pEm6.2) (dsDNA)
DNA 1: ACCACGTTCAAAGTATACGTCAGCTAATAAAGTCAGACACGTGGCATGTCACCAAGAA
DNA 2: TTCTTGGTGACATGCCACGTGTCTGACTTTATTAGCTGACGTATACTTTGAACGTGGT
NF-YC9-6His
  binding result: no binding
ABI5-6His
  binding result: binds
